In patent US20190248902A1 (published 2019):
Where a chain is given by its changes, count along the chain named. Each block holds one binder with its values, some of them ahead of it.

Legend:
[1] = biological target: T1, human ASGR-1 mutant construct H203 (human, UniProt P07306 1-291); experiment: FACS, transfected CHO-S cells, mAb 5 ug/ml
T1 construct: Arg/Glu scanning: non-arginine residues were changed to arginine; Transiently expressed on CHO-S cells
T1 sequence: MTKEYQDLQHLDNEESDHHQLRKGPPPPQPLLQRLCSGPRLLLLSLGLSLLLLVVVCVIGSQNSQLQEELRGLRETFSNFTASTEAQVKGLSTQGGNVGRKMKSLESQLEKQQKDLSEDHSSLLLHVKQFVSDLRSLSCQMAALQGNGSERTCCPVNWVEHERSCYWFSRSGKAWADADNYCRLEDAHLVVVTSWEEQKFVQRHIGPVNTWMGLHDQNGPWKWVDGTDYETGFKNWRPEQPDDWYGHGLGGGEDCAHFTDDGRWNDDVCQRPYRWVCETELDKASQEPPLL
How it was run: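 Transiently transfected CHO-S cells expressing wild-type or mutant hASGR-1 incubated with antibody at 5 ug/ml, 1 h at 4 °C; bound antibody detected by Alexa Fluor 647 anti-Fc plus 7-AAD, by flow cytometry. Binding normalized to expression using an unaffected antibody (65C12), then to wild type; hits defined as >3× IQR above third quartile.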

Soluble ASGR-1 = biological target: T2, Soluble ASGR-1 (human, UniProt P07306 62-291, biotinylated); experiment: limited antigen binding assay; biotinylated soluble ASGR-1 coated at 2.5 ng/mL on LumAvidin beads, FACS
T2 construct: Soluble recombinant protein; also called recombinant, soluble ASGR-1 biotinylated protein
T2 sequence: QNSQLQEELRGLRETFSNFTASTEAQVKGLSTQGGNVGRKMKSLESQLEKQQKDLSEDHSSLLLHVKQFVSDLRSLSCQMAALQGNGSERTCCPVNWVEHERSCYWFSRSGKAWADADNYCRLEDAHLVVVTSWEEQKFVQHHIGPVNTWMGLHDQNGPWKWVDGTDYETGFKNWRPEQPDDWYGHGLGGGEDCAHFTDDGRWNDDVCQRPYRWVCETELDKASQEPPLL
Protocol: To assess antibody and antigen interaction strength (relative binding affinity), ASGR-1 specific, ligand competing antibody hybridoma supernatants were tested in a limiting antigen binding assay. Titrated amounts of recombinant, soluble ASGR-1 biotinylated protein was incubated with streptavidin-coated LumAvidin Beads® for 45 minutes in the dark at room temperature and washed twice. Beads were resuspeneded in FACS buffer containing Stabilguard® and 0.05% Sodium Azide. Antigen-bound beads were then incubated with normalized hybridoma supernatant sample or controls for 18 hours in the dark at room temperature, washed twice, incubated with Alexa Fluor® 488 IgG fragment-specific detection antibody for 15 minutes in the dark at room temperature, washed once and finally resuspended in FACS buffer. Samples were analyzed using an Intellicyt iQue™ Screener Platform. FACS buffer supplemented with 1 mM Calcium Chloride was used in all steps. […] In this assay method, the antibody binding signal correlates with antibody affinity. Antibody binding data for a representative antigen coating concentration that fell in the linear range of the instrument signal detection is shown in Table 7.2. The degree of antibody binding to the target (ASGR-1) correlates with the measured fluorescent intensity and thus allows a relative comparison of affinities across the panel.

Mouse ASGR-1 = biological target: T3, Mouse ASGR-1 (mouse, UniProt P34927 1-284); experiment: FACS on transfected HEK 293 cells or membrane preps on beads; binding = signal at least 2x irrelevant IgG
T3 construct: Expressed on HEK 293 cells or as membrane prep on beads; cDNA GenBank BC022106.1; also called muASGR-1; mASGR-1
T3 sequence: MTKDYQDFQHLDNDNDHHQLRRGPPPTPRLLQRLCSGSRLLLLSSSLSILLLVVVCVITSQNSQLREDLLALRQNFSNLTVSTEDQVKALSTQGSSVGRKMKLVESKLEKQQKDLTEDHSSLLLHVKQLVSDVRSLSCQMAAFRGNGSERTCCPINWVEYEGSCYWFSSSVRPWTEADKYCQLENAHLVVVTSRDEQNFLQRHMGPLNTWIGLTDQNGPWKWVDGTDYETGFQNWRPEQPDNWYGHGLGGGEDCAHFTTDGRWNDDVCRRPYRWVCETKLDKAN
Protocol: Human ASGR-1-specific, ligand competing antibody samples were tested for binding to ASGR-1 from other species (cynomologus monkey ASGR-1, mouse ASGR-1, rat ASGR-1, dog ASGR-1, and pig ASGR-1) as well as to human ASGR-2 in FACS binding assays at normalized antibody concentrations. For cell-based assays, HEK 293 cells expressing the appropriate antigen of interest were mixed with antibody sample or controls, incubated for 1 hour at 4° C., and then washed twice. Cells with bound antibody were then incubated with Alexa Fluor® 647 IgG Fc fragment-specific detection antibody and 7-AAD viability stain for 15 minutes at 4° C., washed once and resuspended in FACS buffer. Samples were analyzed using a BD Accuri™ Flow Cytometer and an Intellicyt HyperCyt Autosampler. As a negative control, supernatants and controls were also screened against HEK 293 cells transfected with empty parental vector. […] For membrane-prep binding assays, ASGR-1 species specific membrane preps were used to coat LumAvidin® microspheres (beads) and tested for binding to selected hybridoma supernatants or controls. Briefly, ASGR-1 species specific membrane preps were incubated with streptavidin-coated LumAvidin® beads for 45 minutes in the dark at room temperature and washed twice. Beads were resuspeneded in FACS buffer containing Stabilguard®. Antigen-bound beads were then incubated with normalized antibody sample for 1 hour in the dark at room temperature, washed twice, incubated with Alexa Fluor® 488 IgG Fc fragment-specific detection antibody for 15 minutes in the dark at room temperature, washed once and finally resuspended in FACS buffer. Samples were analyzed using an Intellicyt iQue™ Screener Platform. FACS buffer supplemented with 1 mM Calcium Chloride was used in all steps. As a negative control, supernatants and controls were also screened against a non-ASGR-1 antigen membrane prep coated on the LumAvidin® beads.

B2: 193E7 (antibody, V domains shown)
VH: QVQLQQWGAGLLKPSETLSLTCAVYGGSFSGYFWTWIRQPPGKGLEWIGEINHSGSTNYNPSLKSRVTISVDTSKNQFSLKLSSVTAADTAVYYCARDYGADYWGQGTLVAVSA
VL: DIQMTQSPSSLSASVGDRVTITCRASQGIRNDLGWYQQKPGKAPKRLIYSASSLQRGVPSRFSGSGSGTEFTLTISSLQPEDFATYYCLQHKRYPLTFGGGTKVEIK
notes: mAb
- FACS Binding Geomean [1]: 13800

B3: 12D2 (antibody, V domains shown)
VH: EVQLVESGGGLVKPGGSLRLSCAASGFTFSSYSMNWVRQAPGKGLEWVSSISSSSSYIYYADSVKGRFTISRDNAKNSLYLQMNSLRAEDTAVYYCARLGDYWGQGTLVAVSS
VL: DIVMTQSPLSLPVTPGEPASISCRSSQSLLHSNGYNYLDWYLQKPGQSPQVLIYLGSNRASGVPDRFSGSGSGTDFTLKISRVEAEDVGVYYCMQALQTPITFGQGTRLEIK
notes: Tested as hybridoma supernatant at normalized concentration
- FACS Geomean (Soluble ASGR-1): 105 FACS Geomean

B4: 75G3 (antibody, V domains shown)
VH: QVQLQQWGAGLLKPSETLSLTCAVYGGSLSGSYWSWIRQPPGKGLEWIGEINLSGSTNYNPSLKSRVTISVDTSKSQFSLTLRSVTAADTAVYYCARDYGGLDYWGQGTLVTVSS
VL: EIVLTQSPGTLSLSPGERATLSCRARQNVDSSYLAWYQQKPGQAPRLLIYGASSRATGIPDRFSGSGSGTDFTLTISRLEPEDFAVFYCQQYERSPWTFGQGTKVEIK
notes: as for B3
- FACS Geomean (Soluble ASGR-1): 35800 FACS Geomean
- binding result (Mouse ASGR-1): no binding

B5: 75G3 (antibody, V domains shown)
VH: B4 VH
VL: B4 VL
notes: mAb
- FACS Binding Geomean [1]: 14500

B6: 4B1 (antibody, V domains shown)
VH: QVQLQESGPGLVKPSETLSLTCSVSGDSISSYSWSWIRQPAGKGLEWIGRIYTSGSTNYIPSLKSRITMSVDTSKKQFSLKLSSVTAADTAVYYCARDLKSSGCLFFDYWGQGTLVTVSS
VL: DIQMTQSPSSLSASVGDRVTITCRASHTIRTYLNWYQQKPGKAPKLLIYAASSLQSGVPSRINGSGSGTDFTLTITNLQPEDFATYYCQQSYNISFTFGPGTKVDIK
notes: as for B3
- FACS Geomean (Soluble ASGR-1): 10100 FACS Geomean

B7: 184E7 (antibody, V domains shown)
VH: QVQLVQSGAEVKTPGASVKVSCRASGYTFTSYNMHWVRQVPGQGLEWMGWINPNNGGSNYTQKFQGRVTMTRDTSISTAYMELSRLRSDDTAVYYCARKFGDWGQGTLVTVSS
VL: DIQMTQSPSSRSASIGERVTITCRASQGISNYLAWIQQKPGTAPKSLIYAASSLQSGVSSRFSGSGFGTDFTITISSVQREDFATYYCQQYNGYPFTFGHGTKVDIK
notes: as for B3
- FACS Geomean (Soluble ASGR-1): 40200 FACS Geomean

B8: 190F8 (antibody, V domains shown)
VH: QVQLVESGGGVVQPGRSLRLSCAASGFTFSTYGMHWVRQAPGKGLEWVAVIWYDGSNKNYADSVKGRFTISRDNSKNTLYLQMNSLRAEDTAVYYCARDQGVGYDGLDVWGQGTTVTVSS
VL: DIQMTQSPSSLSASVGDRVTITCRTSQGIGNYLAWFQQKPGKAPKSLLYKASSLQSGVPSKFSGSGSGTDFTLTISSLQPEDFATYYCQQYMTYPLTFGGGTKVEIK
notes: as for B3
- FACS Geomean (Soluble ASGR-1): 13900 FACS Geomean
- binding result (Mouse ASGR-1): no binding

B12: 191G10 (antibody, V domains shown)
VH: B8 VH with T31S
VL: B8 VL with N31K, A51V
notes: as for B3
- FACS Geomean (Soluble ASGR-1): 24200 FACS Geomean
- binding result (Mouse ASGR-1): no binding

B13: 191G1 (antibody, V domains shown)
VH: B8 VH with T31S, K58E, N59H, Q100R, D105Y
VL: B8 VL with T25A, G30S, L48I, K50A, Q90H, M92L
notes: as for B3
- FACS Geomean (Soluble ASGR-1): 9550 FACS Geomean
- binding result (Mouse ASGR-1): no binding

B14: 4H6 (antibody, V domains shown)
VH: QVQLVQSGAEVKKPGASVKVSCKASGYTFTDYYLHWVRQAPGQGLEWMGWIHPNSGGTNYAQKFQGRVTMTRDTSISTAYMGLSSLRSDDTAVYYCARDGTSSFDYWGQGTLVTVSS
VL: DIQMTQSPSSVSASVGDRVTITCRASQGISRWLAWYQQKPGKAPKLLIYGASSLQSGVPSRFSGSGSGTDFTLTISSLQPEDFAIYYCQQANSFPFTFGPGTKVDIK
notes: as for B3
- FACS Geomean (Soluble ASGR-1): 2990 FACS Geomean

B15: 72G9 (antibody, V domains shown)
VH: EVQLVESGGGLVKPGGSLRLSCAASGFTFSSYSMNWVRQAPGKGLEWVSSISGSSSYIYYADSVKGRFTISRDNAKNSLYLQMNSLRAEDTAVYFCARGGSRGFDPWGQGTLVTVSS
VL: B14 VL with V11L, G28S, S30T, R31S, W32Y, A34N, G50T, I85T, A91S, N92H
notes: as for B3
- FACS Geomean (Soluble ASGR-1): 34000 FACS Geomean

Results, then the binder that gave them:

- FACS Binding Geomean [1]: 13200
B1: 194C10 (antibody, V domains shown)
VH: QVQLQQWGAGLLKPSETLSLTCAVSGGSFRYYYWSWIRQPPGKGLEWFGEINHSGSTNYNPSLKSRVTISIDTSKNQFSLKLRSVTAADTAVYYCARDYGAFDIWGQGTMVTVSS
VL: EIVLTQSPGTLSLSPGERATLSCRASPSVNSGYLAWYQQKPGQTPRLLIFGASSRATGIPDRFSASGSGADFTLTISRLEPEDFAVYFCQQYESSPWTFGQGTKVEIK
notes: mAb

- FACS Geomean (Soluble ASGR-1): 16900 FACS Geomean
- binding result (Mouse ASGR-1): no binding
B9: 194C1 (antibody, V domains shown)
VH: B8 VH with T31S, K58E, N59H, D99N, Q100R, D105Y
VL: B8 VL with T25A, G30S, L48I, K50A, Q89L, Q90H, M92L
notes: as for B3

- FACS Geomean (Soluble ASGR-1): 17700 FACS Geomean
- binding result (Mouse ASGR-1): no binding
B10: 197G3 (antibody, V domains shown)
VH: B8 VH with A23V, T31S, Y32H, Q100P, G101S, L107M
VL: DIQMTQSPSSLSASVGDRVTITCRASQGIGNHLAWFQQKPGKAPKSLIYAASSLQSGVPSKFSGSRSGTDFSLTISSLQPEDFATYYCQQYSNYPVTFGPGTKVDIK
notes: as for B3

- FACS Geomean (Soluble ASGR-1): 26000 FACS Geomean
- binding result (Mouse ASGR-1): no binding
B11: 198G3 (antibody, V domains shown)
VH: B8 VH with R19K, S56T, Y80C
VL: B8 VL with T5A, N31K, S56G
notes: as for B3

- FACS Binding Geomean [1]: 7930
B16: 218G4 (antibody, V domains shown)
VH: QVQLVESGGGVVQPGRSLRLSCAASGFTFSSYGLHWVRQAPGKGLEWVAVIWYDGSNKYYADSVKGRFTISRDNSKNTLYLQMNSLRVEDTAVYYCANWYYYYYGMDVWGQGTTVTVSS
VL: QSVLTQPPSVSAAPGQKVTISCSGSSSNIGNNYVSWYQQLPGTAPKLLLYDSNKRPSGIPARFSGSKSGTSATLGITGLQTGDEADYYCGTWDSSLNTVVFGGGTKLTVL
notes: mAb
